Assay results reported in patent publication US20200055939A1 (Genentech, published 2020).

Assays:
[1] = target: T1, MICA*008 on MEL-JUSO cells (human, UniProt Q29983 24-317); assay: cell-based or functional assay
T1 chain: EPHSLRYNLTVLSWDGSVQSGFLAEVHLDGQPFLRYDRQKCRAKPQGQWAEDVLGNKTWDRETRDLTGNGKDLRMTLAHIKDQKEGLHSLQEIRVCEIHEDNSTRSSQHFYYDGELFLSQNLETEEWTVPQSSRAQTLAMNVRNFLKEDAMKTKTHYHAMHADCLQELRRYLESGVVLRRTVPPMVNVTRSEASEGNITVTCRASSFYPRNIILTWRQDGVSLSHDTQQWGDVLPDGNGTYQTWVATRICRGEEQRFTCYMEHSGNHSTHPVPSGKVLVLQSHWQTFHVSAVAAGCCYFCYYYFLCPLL

[2] = target: MICA*004 on HCC1534 cells (human, UniProt Q29983 24-383); assay: cell-based or functional assay
[3] = target: MICB*005 on HCC1534 cells (human); assay: cell-based or functional assay
huMICA*002 alpha 3-his = target: T2, huMICA*002 alpha 3-his (human); assay: SPR, Biacore 8K, antibody on Protein A chip
T2 construct: whole construct entry: GS, alpha 3 domain, GNS, His8; also called MICA002.His; MICA*002 alpha3 construct
T2 chain: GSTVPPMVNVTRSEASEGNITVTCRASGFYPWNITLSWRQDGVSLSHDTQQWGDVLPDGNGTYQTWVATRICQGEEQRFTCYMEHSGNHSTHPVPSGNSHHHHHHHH

huMICA*004 alpha 3-his = target: T3, huMICA*004 alpha 3-his (human); assay: SPR, Biacore 8K, antibody on Protein A chip
T3 construct: whole construct entry: GS, alpha 3 domain, GNS, His8; also called MICA004.His; MICA*004 alpha3 construct
T3 chain: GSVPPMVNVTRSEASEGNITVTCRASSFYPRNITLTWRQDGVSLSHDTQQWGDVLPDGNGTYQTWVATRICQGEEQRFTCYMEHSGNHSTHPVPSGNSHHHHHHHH

huMICA*008 alpha 3-his = target: T4, huMICA*008 alpha 3-his (human); assay: SPR, Biacore 8K, antibody on Protein A chip
T4 construct: whole construct entry: GS, alpha 3 domain (Thr204-Ser297), GNS, His8; also the construct of the FPOP experiment; also called MICA008.His; MICA*008 alpha3 construct
T4 chain: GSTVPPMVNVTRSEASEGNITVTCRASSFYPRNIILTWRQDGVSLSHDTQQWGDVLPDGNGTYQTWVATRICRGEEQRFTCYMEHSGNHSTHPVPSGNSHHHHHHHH

huMICB*005 alpha 3-his = target: T5, huMICB*005 alpha 3-his (human); assay: SPR, Biacore 8K, antibody on Protein A chip
T5 construct: whole construct entry: GS, alpha 3 domain, GNS, His8; also called MICB005.His; MICB*005 alpha3 construct
T5 chain: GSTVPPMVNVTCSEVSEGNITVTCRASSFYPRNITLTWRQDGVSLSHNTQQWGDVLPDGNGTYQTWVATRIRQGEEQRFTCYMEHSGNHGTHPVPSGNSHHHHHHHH

[4] = target: T6, MICB005.His (human MICB*005 alpha 3 domain, His tagged) (human); assay: SPR, antibody captured;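 note: SPR with antibody held by surface-bound anti-Fc while His-tagged alpha three domains flow over, Kd derived by fitting a one-to-one binding model to sensograms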
T6 construct: also called huMICB*005 alpha 3-his
T6 chain: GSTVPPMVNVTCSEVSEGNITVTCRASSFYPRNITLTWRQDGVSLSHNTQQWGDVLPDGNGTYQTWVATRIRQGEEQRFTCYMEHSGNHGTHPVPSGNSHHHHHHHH

[5] = target: T7, MICA*008 on MEL-JUSO cells (human, UniProt Q29983 24-317); assay: cell-based or functional assay
T7 chain: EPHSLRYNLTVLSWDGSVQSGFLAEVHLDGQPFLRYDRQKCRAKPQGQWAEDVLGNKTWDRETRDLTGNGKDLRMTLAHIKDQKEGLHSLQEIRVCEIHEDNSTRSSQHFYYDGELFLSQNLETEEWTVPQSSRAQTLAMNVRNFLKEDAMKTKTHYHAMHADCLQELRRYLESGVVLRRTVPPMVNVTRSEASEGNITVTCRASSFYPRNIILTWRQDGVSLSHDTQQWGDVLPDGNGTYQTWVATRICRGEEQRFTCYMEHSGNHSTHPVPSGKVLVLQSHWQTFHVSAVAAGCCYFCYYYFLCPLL

[6] = target: MICA*004 on HCC1534 cells (human, UniProt Q29983 24-383); assay: cell-based or functional assay; remark: listed apart in the source
Throughout, for % Inhibition: test concentration or dose not given here.

Binder	% Inhibition [1] [%]	% Inhibition [2] [%]	% Inhibition [3] [%]	Kd (huMICA*002 alpha 3-his) [nM]	Kd (huMICA*004 alpha 3-his) [nM]	Kd (huMICA*008 alpha 3-his) [nM]	Kd (huMICB*005 alpha 3-his) [nM]	Kd [4] [nM]	% max inhibition of shedding [5] [%]	% max inhibition of shedding [6] [%]	EC50 of shedding inhibition [6] [µg/mL]
6E1.1.12 (antibody, V domains shown, mouse variable domains) VH: QGQMQQSGAELVKPGASVKLSCKTSGFTFSDNYISWLKQKPGQSLEWIAWIYAGTGGSSYNQKFRDKAQLTVDTSSRTAYMQLSSLTTEDSAIYYCARHDYYGTSGAWFAYWGRGTLVTVSA VL: DVLMTQTPLSLPVSLGDQASISCRSSQHIVHSNENTYLEWYLQKPGQSPKLLIYKVSNRFSGVPDRFSGSGSGTDFTLKISRVEAEDLGVYYCFQGSHVPWTFGGGTKVEIK	31	34	58	1.49	3.95	3.72	2.96	–	–	–	–
15F11v2 (antibody, IgG1, V domains shown, humanized variant of 15F11) VH: EIQLVQSGAEVKKPGASVKVSCKPSGYAFTSNNIYWVRQAPGQGLEWIGYIDPYIGRIIYNQQFKDRATLTVDKSTSTAYLELSSLRSEDTAVYYCSRSGERSNFDYWGQGTLVTVSS VL: EIVLTQSPATLSLSPGERATLSCSASSSISSNYLHWYQQKPGQAPRLLIYRTSNLASGIPARFSGSGSGTDFTLTISSLEPEDFAVYYCQQGGSLPLTFGQGTKVEIK	62	43	35	5.05	2.74	3.17	6.71	–	–	–	–
15F11v4 (antibody, IgG1, V domains shown, humanized variant of 15F11) VH: EIQLVQSGAEVKKPGASVKVSCKPSGYAFTSNNIYWVRQAPGQGLEWIGYIDPYIGRIIYNQQFKDRATLTVDKSTSTAYLELSSLRSEDTAVYYCSRSGERSNFDYWGQGTLVTVSS VL: EIVLTQSPATLSLSPGERATLSCSASSSISSNYLHWYQQKPGQSPRLLIYRTSNLASGVPARFSGSGSGTDYTLTISSLEPEDFAVYYCQQGGSLPLTFGQGTKVEIK	-19	-34	44	4.75	2.58	2.58	5.72	–	–	–	–
15F11v5 (antibody, IgG1, V domains shown, humanized variant of 15F11) VH: EIQLVQSGAEVKKPGSSVKVSCKPSGYAFTSNNIYWVRQAPGQGLEWIGYIDPYIGRIIYNQQFKDRATLTVDKSTSTAYMELSSLRSEDTAVYYCSRSGERSNFDYWGQGTLVTVSS VL: EIVLTQSPATLSLSPGERATLSCSASSSISSNYLHWYQQKPGQAPRLLIYRTSNLASGIPARFSGSGSGTDFTLTISSLEPEDFAVYYCQQGGSLPLTFGQGTKVEIK	62	46	-35	6.05	3.11	3.2	7.8	–	–	–	–
15F11v1 (antibody, IgG1, V domains shown, humanized variant of 15F11) VH: EVQLVQSGAEVKKPGASVKVSCKASGYAFTSNNIYWVRQAPGQGLEWIGYIDPYIGRIIYNQQFKDRVTITADTSTSTAYLELSSLRSEDTAVYYCSRSGERSNFDYWGQGTLVTVSS VL: EIVLTQSPATLSLSPGERATLSCSASSSISSNYLHWYQQKPGQAPRLLIYRTSNLASGIPARFSGSGSGTDFTLTISSLEPEDFAVYYCQQGGSLPLTFGQGTKVEIK	4	3	43	12.8	5.96	6.52	16.1	–	–	–	–
15F11v6 (antibody, IgG1, V domains shown, humanized variant of 15F11) VH: EIQLVQSGAEVKKPGSSVKVSCKPSGYAFTSNNIYWVRQAPGQGLEWIGYIDPYIGRIIYNQQFKDRATLTVDKSTSTAYMELSSLRSEDTAVYYCSRSGERSNFDYWGQGTLVTVSS VL: EIVLTQSPATLSLSPGERATLSCSASSSISSNYLHWYQQKPGQSPRLLIYRTSNLASGVPARFSGSGSGTDYTLTISSLEPEDFAVYYCQQGGSLPLTFGQGTKVEIK	-8	-14	59	5.47	2.91	2.94	6.62	–	–	–	–
15F11v3 (antibody, IgG1, V domains shown, humanized variant of 15F11) VH: EVQLVQSGAEVKKPGASVKVSCKASGYAFTSNNIYWVRQAPGQGLEWIGYIDPYIGRIIYNQQFKDRVTITADTSTSTAYLELSSLRSEDTAVYYCSRSGERSNFDYWGQGTLVTVSS VL: EIVLTQSPATLSLSPGERATLSCSASSSISSNYLHWYQQKPGQSPRLLIYRTSNLASGVPARFSGSGSGTDYTLTISSLEPEDFAVYYCQQGGSLPLTFGQGTKVEIK	50	39	-49	12.7	5.7	5.56	14.1	–	–	–	–
3C9.10 (antibody, V domains shown, Mouse hybridoma antibody; constant regions differ by assay (hybridoma mouse IgG, recombinant human IgG1 or mouse IgG2a)) VH: QVQLKESGPGLVAPSQSLSITCTVSGFSLTGSGVNWVRQPPGKGLEWLGMIWGDGNTDYNSALKSRLSISKDNSKSQIFLKMNSLQTDDTARYYCARGAYYGKRWYFDVWGAGTTVTVSS VL: DIQMTQTTSSLSASLGDRVTISCSASQGISNYLNWYQQKPDGTVKLLIYYTSSLHSGVPSRFSGSGSGTDYSLTISNLEPEDIATYYCQQYSKLPPTFGGGTKVEIK	–	–	–	–	–	–	–	45	< 10	24	50
9C9.5.6 (antibody, V domains shown, Mouse hybridoma antibody; constant regions differ by assay) VH: QVQLKESGPGLVAPSQSLSITCTVSGFSLNGQGVNWVRQPPGKGLEWLGMIWGDGSTDYNSALKSRLSISKDNSRSQVFLKMNSLQTDDTARYYCARGAHYGKRWYFDVWGAGTTVTVSS VL: DIQMTQTTSSLSASLGDRVTISCSASQNINNYLNWYQQKPHGTVKLLIYYTSSLPSGVPSRFSGSGSGTDYSLTISNLEPEDIASYYCQQYSKLPPTFGGGTKVEIK	–	–	–	–	–	–	–	11	< 10	44	3.18
